Measurements reported in publication PMC6913698.

Tests used:
His-TF-TaGATA1 [1] = target: T1, His-TF-TaGATA1 (Triticum aestivum (line CI12633), UniProt A0A5K7NI72 1-181); assay: EMSA
T1 sequence: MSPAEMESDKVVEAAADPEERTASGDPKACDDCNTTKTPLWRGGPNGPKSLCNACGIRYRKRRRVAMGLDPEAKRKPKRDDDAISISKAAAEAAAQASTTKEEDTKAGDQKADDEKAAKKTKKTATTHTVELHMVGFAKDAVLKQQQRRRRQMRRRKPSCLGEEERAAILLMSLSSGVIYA

His-TF-TaGATA1 [2] = target: T1, His-TF-TaGATA1; assay: competition

B1: GATA-containing probe (dsDNA)
DNA 1: AGTCGACGTGGATAATGGATCCTCGAGTGGATAATTCGATC
DNA 2: GATCGAATTATCCACTCGAGGATCCATTATCCACGTCGACT
His-TF-TaGATA1 [1]
  binding result: binds

B2: unlabelled GATA-containing competitor (dsDNA)
DNA 1: B1 DNA 1
DNA 2: B1 DNA 2
His-TF-TaGATA1 [2]
  binding result: binds
